Laboratory results as given in patent US20160097084.

Legend:
[1] = system: T1, SAStide-Cy5 (Syk Artificial Substrate peptide conjugated with Cy5)
T1 sequence: GGDEEDYEEPDEPGGCGG

[2] = system: T2, 5-FAM-SFAStide-A (Src-Family kinase Artificial Substrate peptide)
T2 sequence: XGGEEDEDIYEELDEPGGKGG

Substance | ELISA-based chemifluorescence (anti-phosphotyrosine 4G10, HRP secondary, Amplex Red) of an in vitro kinase reaction [1] | TR-LRET emission (5-FAM fluorescence signal) in the in vitro kinase reaction with Syk only [2] | TR-LRET emission (Cy5 fluorescence signal) over the time course of an in vitro kinase reaction [1]
Syk-EGFP | the ELISA-based assay displayed increasing fluorescent signal over time for the appropriately match substrates | – | –
Syk-His6 (His6-tagged spleen tyrosine kinase) | – | with minimal bleed through or background interference from the fluorophore attached to the other biosensor | TR-LRET emission spectra for each respective biosensor displayed an increase in the conjugated dye's fluorescence signal
